This note sets out measurements from PMC10764958.

The target of this data set is SARS2-NP WT (bacterial) (SARS-CoV-2, UniProt P0DTC9 1-419). The data set is described as follows: MST; MST: PBS with 0.05% Tween, room temperature; […]. The note with it: protein: recombinant; tags: 2xStrep (C-term); chain copies: 2.

B1: Cy5-RNA (SARS-CoV-2 RNA) (ssRNA)
RNA: CACUCGCUAUGUCGAUAACAACUUCUGUGGCCCUGAUGGCUACCCUCUUGAGUGCAUUAAAGA
As to B1, the binding result is listed as “binds”.
